Experimental data taken from the nanobody polyreactivity screen of Harvey et al. (2022).

Assay: yeast display, Sf9 membrane polyspecificity reagent, FACS + sequencing; frameworks hold sequencing errors
Outline: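 Using colony PCR, genes from sorted yeast display clones were amplified, then sequenced on MiSeq at 2 × 250 and filtered by CDR length. The clones had been stained with 10% biotinylated, detergent-solubilized Sf9 membrane reagent for 1 hour at 4 °C and sorted by FACS into low and high (top ~1%) gates on anti-HA and streptavidin fluorescence. Polyreactivity labels come from the gate of origin.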

QVQLVESGGGLVQAGGSLRLSCAASGITFTSNTMGWYRQAPGKERELVAAISKSGGSTYYADSVKGRFTISRDNEKNTVYLQMNSLKPEDTAVYYCNTVSFYDPFGAYGYWGQGTQVTVSS
polyreactivity (PSR sort gate): high polyreactivity

QVQHVESRGGLVQAGGSLRLSCDASGSTFVTYAMGWYRQAPGKERELVAAISRSGGSTYYADSVKGRFTISRDNAKNTVYLQMNSLKPEDTAVYYCAARDGYGATGHDYWGQGTQVTVSS
polyreactivity (PSR sort gate): low polyreactivity

QVQLVESGGGLVQAGGSLRLSCAASGPTFDVYAMGWYRQAPGKERELVATISWRGTSTYYADSVKGRFTISRDNAKNTVYLQMNSLKPEDTAVYYCAAEVYYEYYYWRYYWGQGTQVTVSS
polyreactivity (PSR sort gate): high polyreactivity

QVQLVESGGGLVQAGGSLRLSSAASGFIIPDYGMGWYRQAPGKDSELVAAISRNGVSTYYADSVKGRFTISRDTAKNTVYLQMNSLKPEATAVYYCAARYYRIRRVSKSGYYWGQGTQVTVSS
polyreactivity (PSR sort gate): low polyreactivity

QVQLVESGGGLVQAGGSLRLSCAASGRIVGINVMGWYRQAPGKERELVAAISYRTGSTYYADSVKGRFTISRDNAKNTVYLQMNSLKPEDTAVYYCDAQRRIRTAWYDYWGQGTQVTVSS
polyreactivity (PSR sort gate): high polyreactivity

QVQLVESGGGLDQAGGSLRLSCAASGRIFNVYAMGWYRQAPGKERELVASITSAGSTYYADSVKGRFTISRDNAKNTVYIKMNSLKPEDTAVYYCAADCYSVYYSTYDSWGQGTQVTVSS
polyreactivity (PSR sort gate): low polyreactivity

QVQLVESGGGLVQAGGSLRLSCAASGRIFKVYAMGWYRQAPGKERELVASIRWNTGSTYYADSVKGRFTISRDNAKNTVYLQMNSLKPEDTAVYYCNARGYYQGRYGYWGQGTQVTVSS
polyreactivity (PSR sort gate): high polyreactivity

QVQLVESGGGLVQARGSLRLSCAASGRTFFENAMGWYRQAPGKERELVATITTTGGSTYYADSVKGRFTISRDNAKNTVYLQMNSLKPEYTAVYYCATRGWYLGSRGYRNRYGYWGQGTQVTVSS
polyreactivity (PSR sort gate): high polyreactivity

QVQVVESGGGLVQAGGSLRLSCAAYGRTISAYAMGWYRQAPVKERELVARITRYGGPTYYADSVKGRFTISRDYAKYTDYLQMNSLKAEVTAVDYCAARKYHLRTAYVYWGQGTEVTVSS
polyreactivity (PSR sort gate): low polyreactivity

QVQLVESGGGLVQAGGSLRLSCAASGRIFYHYAMGGYRPAPGKERELVAAISSSTGRSYYADSVKGRFTFSRDNAKNTVYLQMNSLKPEDSAVYYCATTPGYYGYISPRIRLYDYWGQGTQVTVSS
polyreactivity (PSR sort gate): high polyreactivity

QVQLVESGGGLVQAGGSLRLSCAASGSTFGYYAMGWYRQAPGKERELVAAISYSGGSTYYADSVKGRFTISRDNAKNTVYLQMNSLKPAVTAVYYCAARFTRQMYYWGQGTQVTVSS
polyreactivity (PSR sort gate): high polyreactivity

QVQHVESGGGLVQAGGSLRLSCAASGGIFYVNAMGWYRQEPGKERELVADITSDGVSKYYADSVKGRFTISRDNAKNTVYLQMNRLKPEDTAVYYCGGDNGGAGYYYGYVWYDYWGQGTQVTVSS
polyreactivity (PSR sort gate): low polyreactivity

QVQLVESGGGLVQARGSLRLSCAASGIIRSNAMGWYRQAPGKERELVAVISSSGGRTYYADSVKGRFTISRDNAKNTVYLQMTSLKPEDTAVFYCPAQVQVGAFSYYYWGQGTQVTVSS
polyreactivity (PSR sort gate): high polyreactivity

QVQLVESGGGLVQAGGSLRLSCAASGSIFPVNAMGWSRQAPGKERELVATITWRGGRTYYADSVKGRFTISRDNAKNTVYLQMNSLKPEDTAVYYCAARLLYRHFGYWGQGTQVTVSS
polyreactivity (PSR sort gate): high polyreactivity

QVQLVESGGGLVQAGGSLRLSCAASGITFVTYAMGWYRQAPGKERELVAAITIGGRTNYADSVKGRFTISRDNAKNTVYLQMNSLKPEDTAVYYCNAAPVYDVTRLFYDDMGYWGQGTQVTVSS
polyreactivity (PSR sort gate): low polyreactivity

QVQLVESGGGLVQAGGSLRLSCAASGRTFRRNVMGWYRQAPGKERELVAAISSGANTNYADSVKGRFTISRDNAKNTVYLQMNSLKPEDTAVYYCAAGEGWRSRTFDYWGQGTQVTVSS
polyreactivity (PSR sort gate): low polyreactivity

QVQLVESGGGLVQAGGSLRLSCAASGRLFRWYAMGGYRQAPGKERELVAAISRSGTSTYYADSVKGRFTISRDNAKNSVYLQMNSLKPEDTAVYYCAADAVIFGMDYWGQGTQVTVSS
polyreactivity (PSR sort gate): low polyreactivity
